According to publication PMC2768988 (2009):

Target: T1, Flrt3 ectodomain (zebrafish, biotin on the enzymatically biotinylatable sequence (bait form))
T1 chain: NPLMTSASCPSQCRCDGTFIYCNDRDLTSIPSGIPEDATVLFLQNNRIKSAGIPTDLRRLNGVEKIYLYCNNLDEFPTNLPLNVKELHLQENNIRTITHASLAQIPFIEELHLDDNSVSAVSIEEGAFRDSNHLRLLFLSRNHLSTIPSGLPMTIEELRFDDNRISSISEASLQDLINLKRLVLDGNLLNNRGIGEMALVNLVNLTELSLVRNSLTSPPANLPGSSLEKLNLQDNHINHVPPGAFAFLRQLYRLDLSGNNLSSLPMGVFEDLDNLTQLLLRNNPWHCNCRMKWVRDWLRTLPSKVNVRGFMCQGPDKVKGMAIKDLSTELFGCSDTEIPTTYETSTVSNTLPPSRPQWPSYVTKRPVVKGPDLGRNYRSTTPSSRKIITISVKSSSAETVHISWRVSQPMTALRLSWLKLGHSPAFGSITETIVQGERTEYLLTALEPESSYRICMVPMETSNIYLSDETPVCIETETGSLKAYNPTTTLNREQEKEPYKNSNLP
Test: SPR

koff: 5.5 s⁻¹
B1: Unc5b-Cd4d3+4-6His (domain or fragment)
chain: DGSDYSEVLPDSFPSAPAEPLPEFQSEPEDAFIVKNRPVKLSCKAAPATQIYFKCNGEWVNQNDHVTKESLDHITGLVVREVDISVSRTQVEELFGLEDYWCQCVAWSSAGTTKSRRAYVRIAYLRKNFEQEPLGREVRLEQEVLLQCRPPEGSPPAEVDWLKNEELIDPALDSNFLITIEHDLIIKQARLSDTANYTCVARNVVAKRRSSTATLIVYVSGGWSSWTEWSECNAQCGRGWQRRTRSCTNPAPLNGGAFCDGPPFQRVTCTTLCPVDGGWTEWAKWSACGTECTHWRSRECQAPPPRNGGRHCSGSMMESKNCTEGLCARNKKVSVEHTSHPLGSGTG
